From publication PMC2582146 (Biochemistry, 2008)
Read-outs that look alike come from different tables or passages of the source. Values belong to the binder of their own block, whether it stands above or below them. No end group written: not given here.

Experiments:
[1] = molecular target: T1, CAL PDZ domain (UniProt Q9HD26-2 278-362); experiment: fluorescence polarisation
[2] = molecular target: T2, NHERF1 PDZ1 domain (human, UniProt O14745 1-139); experiment: fluorescence polarisation
T2 sequence (looked up): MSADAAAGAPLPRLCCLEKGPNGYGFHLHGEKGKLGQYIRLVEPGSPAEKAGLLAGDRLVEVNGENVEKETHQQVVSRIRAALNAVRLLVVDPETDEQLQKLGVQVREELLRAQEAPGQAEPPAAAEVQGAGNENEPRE

[3] = molecular target: T2, NHERF1 PDZ1 domain; experiment: fluorescence polarisation; remark: listed apart in the source
[4] = molecular target: T2, NHERF1 PDZ1 domain; experiment: SPR
[5] = molecular target: T1, CAL PDZ domain; experiment: fluorescence polarisation; remark: listed apart in the source
[6] = molecular target: T1, CAL PDZ domain; experiment: peptide or protein array
[7] = molecular target: T2, NHERF1 PDZ1 domain; experiment: ITC
[8] = molecular target: T2, NHERF1 PDZ1 domain; experiment: ITC; remark: listed apart in the source
[9] = molecular target: T2, NHERF1 PDZ1 domain; experiment: fluorescence polarisation; remark: listed apart in the source

B1: C-FRZ5_(10) (peptide)
peptide: CYHKQVSLSHV
Ki [1]: 451 ± 42 µM

B2: C-CFTR6 (peptide)
peptide: CVQDTRL
Ki [2]: 0.67 ± 0.097 µM

B4: C-CFTR10 (peptide)
peptide: CTEEEVQDTRL
Kd [4]: 0.0103 µM
Ki [2]: 0.597 ± 0.077 µM
Ki [1]: 690 ± 120 µM

B5: C-NR2A10 (peptide)
peptide: CKKMPSIESDV
Ki [1]: 1940 ± 920 µM

B7: C-NLG2_(10) (peptide)
peptide: CLPHPHSTTRV
Ki [1]: 107 ± 1.7 µM

B11: C-AIC3A10 (peptide)
peptide: CHRTCYLVTQL
Ki [1]: 42.2 ± 4.2 µM

B13: SSR5 C-terminal undecamer peptide on the HUMLIB array (peptide, UniProt P35346 354-364, looked up)
peptide: AANGLMQTSKL
binding result [6]: binds

B15: C-RTKN10 (peptide)
peptide: CQPRTWLQSPV
Ki [1]: 229 ± 16 µM

B16: CFTR10 (peptide)
peptide: TEEEVQDTRL
Kd [7]: 0.787 ± 0.055 µM
dH [7]: -10.4 ± 0.19 kcal/mol
dH extrapolated to 37 °C [7]: -12.2 kcal/mol
dH [8]: -9.11 kcal/mol

B17: C-SDK2_(10) (peptide)
peptide: CAPIAGFSSFV
Ki [1]: 150 ± 20 µM

B19: F*GG-CFTR16 (peptide)
peptide: fluorescein-GGAALKEETEEEVQDTRL
Kd [3]: 0.116 ± 0.01 µM

B20: C-FRZ8_(10) (peptide)
peptide: CYPKQMPLSQV
Ki [1]: 47 ± 10 µM

B21: C-GluRδ2_(10) (peptide)
peptide: CGNDPDRGTSI
Ki [1]: 560 ± 130 µM

B22: C-CL1_(10) (peptide)
peptide: CDGQMQLVTSL
Ki [1]: 88.3 ± 6.3 µM

B25: F*-CFTR10 (peptide)
peptide: fluorescein-TEEEVQDTRL
Kd [3]: 0.279 ± 0.021 µM

More lines, now with the values ahead:

Kd [3]: 0.949 ± 0.089 µM
B3: F*C-CFTR4 (peptide)
peptide: C(fluorescein‑5‑maleimide)DTRL

Ki [5]: 22.6 ± 7.1 µM
Ki [1]: 37.6 ± 4 µM
B6: C-SSR5_(10) (peptide)
peptide: CANGLMQTSKL

Ki [2]: 0.209 ± 0.064 µM
B8: CGG-CFTR16 (peptide)
peptide: CGGAALKEETEEEVQDTRL

Ki [5]: 410 ± 190 µM
Ki [1]: 510 ± 110 µM
B9: C-β1AR10 (peptide)
peptide: CRPGFASESKV

Ki [1]: 158 ± 19 µM
B10: C-NLG10 (peptide)
peptide: CHPHSHSTTRV

binding result [6]: binds
B12: CFTR C-terminal undecamer peptide on the HUMLIB array (peptide, UniProt P13569 1470-1480, looked up)
peptide: ETEEEVQDTRL

Ki [1]: 875 ± 56 µM
B14: C-GluRδ1_(10) (peptide)
peptide: CALDTSHGTSI

Ki [5]: 110 ± 60 µM
Ki [1]: 93 ± 8.5 µM
B18: C-ClC3B10 (peptide)
peptide: CEVYLLNSTTL

Ki [1]: 1110 ± 480 µM
B23: C-βCAT10 (peptide)
peptide: CNQLAWFDTDL

Ki [2]: 1.52 ± 0.078 µM
Ki [9]: 0.949 µM
B24: C-CFTR4 (peptide)
peptide: CDTRL
